According to PMC6179282:

Experiments:
[1] = target: Camelus dromedarius mu-class glutathione S-transferase (CdGSTM1) (Camelus dromedarius); assay: SEC; Superdex 200 Increase, 0.25 mg CdGSTM1 equilibrated at pH 4.0, buffer with 150 mM NaCl at pH 4.0
[2] = target: Camelus dromedarius mu-class glutathione S-transferase (CdGSTM1) (Camelus dromedarius); assay: cross-linking; 0.25% glutaraldehyde, room temperature, 15 min, CdGSTM1 0.5 mg/mL at pH 4.0, before and after SEC; SDS-PAGE
[3] = target: Camelus dromedarius mu-class glutathione S-transferase (CdGSTM1) (Camelus dromedarius); assay: cross-linking; 0.25% glutaraldehyde, room temperature, 15 min, CdGSTM1 0.5 mg/mL at pH 7.0, before and after SEC; SDS-PAGE
[4] = target: Camelus dromedarius mu-class glutathione S-transferase (CdGSTM1) (Camelus dromedarius); assay: SEC; analytical Superdex 200 Increase 10/300 GL, calibrated; CdGSTM1 2.5 mg/mL (also 0.25 mg loaded) in 50 mM phosphate buffer, 150 mM NaCl, pH 7.0

Measured: stoichiometry N

Camelus dromedarius mu-class glutathione S-transferase (CdGSTM1) (enzyme)
2: [1] | [2] | [3] | [4]
